Reference: paper PMC11187536

What was measured:
[1] = target: soluble variant surface glycoprotein (sVSG) MITat1.2 (Trypanosoma brucei (endogenous in cell line 13-90)); experiment: SEC; Superdex 200 Increase 10/300 GL, 20 mM sodium acetate pH 5.2, 150 mM NaCl, 100 µl sample at 5 mg/ml, 1 ml/min; self-association, dimer
[2] = target: soluble variant surface glycoprotein (sVSG) MITat1.2 (Trypanosoma brucei (endogenous in cell line 13-90)); experiment: SEC; Superdex 200 Increase 10/300 GL, 50 mM HEPES pH 7.4, 150 mM NaCl, 100 µl sample at 5 mg/ml, 1 ml/min; self-association, dimer

## soluble variant surface glycoprotein (sVSG) MITat1.2 (natural protein)
[1]
  stoichiometry N: 2
[2]
  stoichiometry N: 2
